Results: patent US20200209227A1 (published 2020)

Molecular target: T1, Rh5 (UniProt Q8IFM5 25-526)
T1 sequence: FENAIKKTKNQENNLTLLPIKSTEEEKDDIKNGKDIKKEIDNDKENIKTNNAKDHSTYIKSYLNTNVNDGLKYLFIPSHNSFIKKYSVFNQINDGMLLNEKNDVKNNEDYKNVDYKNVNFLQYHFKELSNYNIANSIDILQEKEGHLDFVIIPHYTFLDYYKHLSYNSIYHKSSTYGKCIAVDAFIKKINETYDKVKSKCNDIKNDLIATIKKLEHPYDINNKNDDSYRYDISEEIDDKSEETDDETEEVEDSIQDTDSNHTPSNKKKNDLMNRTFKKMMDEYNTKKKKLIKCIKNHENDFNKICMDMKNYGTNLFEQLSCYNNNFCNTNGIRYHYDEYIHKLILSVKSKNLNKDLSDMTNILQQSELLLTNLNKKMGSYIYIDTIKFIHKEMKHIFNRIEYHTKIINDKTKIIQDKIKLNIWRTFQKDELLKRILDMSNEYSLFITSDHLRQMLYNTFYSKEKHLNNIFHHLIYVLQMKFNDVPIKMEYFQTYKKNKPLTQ
Experiment: BSI, free solution, label-free

B1: Basigin (receptor)
chain: AAGTVFTTVEDLGSKILLTCSLNDSATEVTGHRWLKGGVVLKEDALPGQKTEFKVDSDDQWGEYSCVFLPEPMGTANIQLHGPPRVKAVKSSEHINEGETAMLVCKSESVPPVTDWAWYKITDSEDKALMNGSESRFFVSSSQGRSELHIENLNMEADPGQYRCNGTSSKGSDQAIITLRVRSH
notes: If it applies, basigin was whole, on human erythrocytes
- Kd: 1080 nM
